Source: PMC7720148

How the values were obtained:
Assay in all cases: single-molecule force spectroscopy
[1] = target: unmodified nucleosome (human histone octamer on 601 DNA) in nucleosome arrays (human) (UniProt P04908)
[2] = target: 12-mer array with 50% H3K27M mutant copies of H3 (human) (UniProt P04908)
[3] = target: 12-mer array with an equimolar mixture of unmodified and H3K27me3-containing nucleosomes (UniProt P04908)
[4] = target: H3K27M mutant nucleosome (100% H3K27M 12-mer array) (human) (UniProt P04908)

| average transition force (all clusters) [1] [pN] | average transition force (all clusters), with SAM [2] [pN] | average rupture force of C3 transitions [3] [pN] | average rupture force of C4 transitions [3] [pN] | average C3 transition force, with SAM [1] [pN] | average C4 transition force, with SAM [1] [pN] | average rupture force of C3 transitions (adjacent nucleosome pair) [1] [pN] | average transition force (all clusters), with SAM [1] [pN] | average C3 transition force, with SAM [4] [pN] | average C4 transition force, with SAM [4] [pN] | average transition force (all clusters), with SAM [4] [pN] | Substance |
| --- | --- | --- | --- | --- | --- | --- | --- | --- | --- | --- | --- |
| 14.5 |  |  |  |  |  |  |  |  |  |  | PRC2–AEBP2 complex (from UniProt Q15910;O75530;Q09028;Q15022;Q6ZN18) |
| 17 | 18.3 | 14.6 | 16.9 | 17.8 | 19.8 | 16.3 | 17.8 | 19.6 | 26.1 | 19.6 | Polycomb repressive complex 2 (PRC2) core complex (from UniProt Q15910;O75530;Q09028;Q15022) |
